According to article PMC4287840:

Experiments:
[1] = molecular target: T1, angiopoietin-2 (Ang2) (human, UniProt O15123 19-496); assay: bead-based fluorescence assay
[2] = molecular target: T1, angiopoietin-2 (Ang2); assay: bead-based fluorescence assay; remark: listed apart in the source
[3] = molecular target: T1, angiopoietin-2 (Ang2); assay: ELONA sandwich
[4] = molecular target: T1, angiopoietin-2 (Ang2); assay: bead-based fluorescence assay; remark: listed apart in the source

T1 sequence (O15123 19-496): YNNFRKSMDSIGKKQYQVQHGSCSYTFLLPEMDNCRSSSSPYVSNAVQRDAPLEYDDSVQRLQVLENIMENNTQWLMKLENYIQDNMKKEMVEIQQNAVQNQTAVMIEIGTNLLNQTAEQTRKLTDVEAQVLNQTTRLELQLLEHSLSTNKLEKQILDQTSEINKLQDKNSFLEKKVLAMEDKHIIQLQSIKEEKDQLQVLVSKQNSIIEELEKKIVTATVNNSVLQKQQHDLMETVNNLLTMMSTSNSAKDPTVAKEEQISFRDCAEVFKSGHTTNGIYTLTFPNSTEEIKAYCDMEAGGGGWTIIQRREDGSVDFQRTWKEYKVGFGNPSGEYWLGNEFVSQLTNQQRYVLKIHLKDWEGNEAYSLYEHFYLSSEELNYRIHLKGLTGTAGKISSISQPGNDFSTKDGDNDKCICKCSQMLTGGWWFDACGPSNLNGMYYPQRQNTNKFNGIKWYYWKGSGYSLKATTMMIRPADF

B1: ABA1 (ssDNA)
DNA: ACTTGTAGGGTTCGGCTGGTCAGGGTGTCCAAGTCTGTGG
Question: How did the binding signal [1] turn out when B1 was run?
Answer: ~210 fold higher Kd than ABA1-ABA65 (97 pM)

B2: ABA92 (ssDNA)
DNA: GGTGCCATTGGGGACTGCTCGGGATTGCGGACTTGGCATC
Question: Does B2 bind [2]?
Answer: binds

B3: ABA109 (ssDNA)
DNA: GGGTGCCATTGGGGACTGCTCGGGATTGCGGACTTGGCAT
Question: Does B3 bind [2]?
Answer: binds

B4: ABA65 (ssDNA)
DNA: TTTGGGGTGGTTGGGGGTTGTTGTTTTGGGGGTGGAGGGT
Question: Does B4 bind [3]?
Answer: binds

B5: 25T linker (ssDNA)
DNA: TTTTTTTTTTTTTTTTTTTTTTTTT
Question: How did the Kd [4] turn out when B5 was run?
Answer: 210 ± 49.4 nM
